The source of these data is paper PMC7838286.

Test [1] deals with Cp150 homodimer (Cp149 variant with a C-terminal cysteine) (Hepatitis B Virus). In words: SEC; 2 uM Cp150Bo with 4 uM holey capsid, 300 mM NaCl, 23 °C, 24 h; 2 uM Cp150Bo alone with 300 mM NaCl as control; Superose 6 with absorbance at 280 and 504 nm and fluorescence at 512 nm. In general terms: In gel filtration, larger molecules generally elute earlier.
Test [2] has the same target. Kind of test: cryo-EM structure; capsids left after treatment of co-assembled capsids with 3 M urea and 100 uM EDTA; C1 symmetry throughout; complete capsid 6.2 Å, holey capsids 10.8 Å and 12.9 Å.

Take “Cp150Bo homodimer (BODIPY-FL-labeled Cp150) (domain or fragment)”: the Cp150Bo dimers added per holey capsid (dimers per holey capsid) in test [1] amounted to 16.
Substance “Cp150 homodimer (Cp149 variant with a C-terminal cysteine) (domain or fragment)” had a stoichiometry N in test [2] of 120 dimers.

By stoichiometry N is commonly meant the number of molecules, sites or subunits per partner or assembly.
